Sequences and labels used below:
B1: 2F5 L100AS-V100DS (antibody, V domains shown)
VH: RITLKESGPPLVKPTQTLTLTCSFSGFSLSDFGVGVGWIRQPPGKALEWLAIIYSDDDKRYSPSLNTRLTITKDTSKNQVVLVMTRVSPVDTATYFCAHRRGPTTSFGSPIARGPVNAMDVWGQGITVTISS
VL: ALQLTQSPSSLSASVGDRITITCRASQGVTSALAWYRQKPGSPPQLLIYDASSLESGVPSRFSGSGSGTEFTLTISTLRPEDFATYYCQQLHFYPHTFGGGTRVDVRR
B2: 2F5 L100AW-V100DW (antibody, V domains shown)
VH: B1 VH with S106W, S109W
VL: B1 VL
B3: 2F5 V100DS (antibody, V domains shown)
VH: B1 VH with S106L
VL: B1 VL
B4: 2F5 L100AW (antibody, V domains shown)
VH: B1 VH with S106W, S109V
VL: B1 VL
B5: 2F5 L100AS (antibody, V domains shown)
VH: B1 VH with S109V
VL: B1 VL
B6: 2F5 F100BS (antibody, V domains shown)
VH: B1 VH with S106L, F107S, S109V
VL: B1 VL
B7: 2F5 V100DW (antibody, V domains shown)
VH: B1 VH with S106L, S109W
VL: B1 VL
B8: 2F5 (antibody, V domains shown)
VH: B1 VH with S106L, S109V
VL: B1 VL
B9: 2F5 L100AS-F100BS (antibody, V domains shown)
VH: B1 VH with F107S, S109V
VL: B1 VL
B10: 2F5 F100BW (antibody, V domains shown)
VH: B1 VH with S106L, F107W, S109V
VL: B1 VL
B11: 2F5 F100BS-I100FS (antibody, V domains shown)
VH: B1 VH with S106L, F107S, S109V, I111S
VL: B1 VL
B12: 2F5 I100FS (antibody, V domains shown)
VH: B1 VH with S106L, S109V, I111S
VL: B1 VL
B13: 2 (Heavy chain: G54S) (antibody, V domains shown)
VH: QVQLVQSGGQMKKPGESMRISCRASGYEFIDCTLNWIRLAPGKRPEWMGWLKPRGGAVNYARPLQGRVTMTRDVYSDTAFLELRSLTVDDTAVYFCTRGKNCDYNWDFEHWGRGTPVIVSS
VL: EIVLTQSPGTLSLSPGETAIISCRTSQYGSLAWYQQRPGQAPRLVIYSGSTRAAGIPDRFSGSRWGPDYNLTISNLESGDFGVYYCQQYEFFGQGTKVQVDI
B14: Insertion-AA (antibody, V domains shown)
VH: B13 VH
VL: EIVLTQSPGTLSLSPGETAIISCRTSQYGSAALAWYQQRPGQAPRLVIYSGSTRAAGIPDRFSGSRWGPDYNLTISNLESGDFGVYYCQQYEFFGQGTKVQVDI
B15: C32AC98S (antibody, V domains shown)
VH: B13 VH with C32S, C102A
VL: B13 VL

Numbering of substitutions follows the chain as printed. In names and notes the source's numbering stands.

In one assay the target is gp41 MPER peptide (residues 657 to 669 of gp41 linked to a C-terminal C9 tag). The assay is described as follows: SPR. (Surface plasmon resonance follows binding to a sensor surface in real time, without labels.)
As usually defined, the Kd is the free concentration of one partner at which half of the binding sites on the other are occupied at equilibrium, for simple one-to-one binding. Higher therefore signals lower affinity. Molecule B1 returned a Kd of 36.7 nM.
Still for that read-out and setting: with B2 the figure was 12.8 nM.
The same measure, in the same setting: with B3 the figure was 14.3 nM.
On the same count and under the same terms, then B4, with 11.3 nM; and B5, with 10.8 nM; and B6, with 11.9 nM.
In the case of B7, the affinity, expressed as Kd, was 11.9 nM.
As for B8, binding was characterised by a dissociation constant (Kd) of 9.5 nM.
In the case of B9, the dissociation constant Kd was determined as 10.9 nM.
Molecule B10 came in with a dissociation constant (Kd) of 11.2 nM.
Same read-out and setting: with B11 the figure was 46.9 nM; with B12, 27.3 nM.

In the next assay the target is Du156.12. Kind of assay: ELISA. (ELISA stands for enzyme-linked immunosorbent assay.)
A word on the EC50: it is the midpoint of the concentration-response curve. B13: the concentration giving a half-maximal response (EC50) amounted to 0.072 µg/mL.
Still for that read-out and setting: then B14, with 2.02 µg/mL; and B15, with 0.048 µg/mL.

Source of the values: patent US20120244166A1 (published 2012).
